A word on the EC50: it is the concentration giving half of the maximal effect. The term Kd denotes the equilibrium constant for the complex coming apart.

Test [1] deals with T1, cynomolgus monkey CCR8 (cynomolgus monkey, UniProt G7NYJ2 1-355).
T1 construct: whole, on cells; also called CynoCCR8
The test can be described thus: FACS, CHO-K1-CynoCCR8 cells. Put shortly: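 Anti-CCR8 antibodies titrated in 5-fold steps from 200 nM onto 1E6 cells/mL CHO-K1-CynoCCR8 in DPBS/2% FBS, 1 h at 4 °C. Bound antibody detected with 1:1000 secondary antibody, 40 min at 4 °C, then flow cytometry.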

Test [2] has as its target T1, cynomolgus monkey CCR8. The test is described as follows: KinExA, cell line overexpressing monkey CCR8; monkey CCR8 cell line. How it is done: To 200 mg of PMMA hard beads was added 30 μg of Goat Anti-Human IgG Fc antibody, and the mixture was supplemented with a coating solution to 1.0 mL, with a buffer composition of 1×PBS, pH7.4, to ensure that the beads were completely suspended in the solution. After being spun at room temperature for 2 h, the beads were either allowed to settle naturally or centrifuged briefly at low speed, and the supernatant was removed. 1 mL of blocking buffer (1×PBS, pH7.4, containing 10 mg/mL BSA) was added to ensure that the beads were resuspended in the blocking solution, and the beads were spun at room temperature for 1 h. An appropriate concentration of PR005565, PR006155 or PR006166 was used as the 100% signal value, and PBS blank was used as the background value. The net signal values were detected using 0.5 μg/mL Alexa Fluor® 647 Goat Anti-Human IgG. The cell line overexpressing human or monkey CCR8 was collected by centrifugation at 1500 g for 5 min, washed 2 times with 2 PBS and centrifuged at 350 g. The cells were collected in a 1.5 mL centrifuge tube. 10 mL of 0.2 nM PR005565, PR006155 or PR006166 solution was prepared. The total cells were supplemented with 0.2 nM PR005565, PR006155 or PR006166 solution to 0.82 mL, and diluted in a 2-fold gradient with 0.2 nM PR005565, PR006155 or PR006166 as a buffer. […]
A general note: Kinetic exclusion samples the free partner from a solution-phase mixture.

For a further test, the target named is T2, CD147.
T2 construct: also called HEK293-CD147
The test is described as follows: flow cytometry, HEK293-CD147 cells. On the technique in general: Flow cytometry measures light scatter and fluorescence of single cells or particles in a stream.

Another test has as its target T3, TSPAN4-FLAG (UniProt O14817 1-238, limits assumed).
T3 construct: whole, on cells; order of protein and tag unknown; also called HEK293-TSPAN4; not shown: FLAG tag
T3 sequence (looked up): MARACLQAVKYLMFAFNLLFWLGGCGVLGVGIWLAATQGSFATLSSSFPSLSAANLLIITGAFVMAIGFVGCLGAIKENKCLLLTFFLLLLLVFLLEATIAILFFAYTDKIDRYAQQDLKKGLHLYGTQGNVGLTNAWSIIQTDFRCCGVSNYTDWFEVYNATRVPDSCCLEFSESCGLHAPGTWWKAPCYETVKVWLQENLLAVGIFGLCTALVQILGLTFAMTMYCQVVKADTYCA
The test is described as follows: flow cytometry, HEK293-TSPAN4 cells.

For the next test, the target named is T4, human CCR8 (human, UniProt P51685 1-355).
T4 construct: whole, on cells; construct used for the overexpressing cell lines is not described; also called hCCR8
The test can be described thus: FACS, CHO-K1-hCCR8 cells. Put shortly: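 Primary Ab 5-fold titration from 200 nM (DPBS/2% FBS), 1 h 4 °C; secondary 1:1000, 40 min 4 °C; 2× DPBS washes; flow cytometry read-out.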

T1 sequence (G7NYJ2 entry or part of it): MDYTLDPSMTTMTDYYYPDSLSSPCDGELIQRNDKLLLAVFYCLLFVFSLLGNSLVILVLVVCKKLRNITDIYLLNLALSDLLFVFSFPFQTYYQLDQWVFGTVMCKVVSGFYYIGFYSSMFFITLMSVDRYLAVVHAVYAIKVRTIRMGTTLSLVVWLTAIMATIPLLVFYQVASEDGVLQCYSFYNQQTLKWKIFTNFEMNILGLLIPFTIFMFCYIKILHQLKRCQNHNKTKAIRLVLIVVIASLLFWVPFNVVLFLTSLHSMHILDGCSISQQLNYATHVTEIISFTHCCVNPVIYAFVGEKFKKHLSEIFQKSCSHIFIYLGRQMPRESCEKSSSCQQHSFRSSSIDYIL
T4 sequence (P51685 whole entry): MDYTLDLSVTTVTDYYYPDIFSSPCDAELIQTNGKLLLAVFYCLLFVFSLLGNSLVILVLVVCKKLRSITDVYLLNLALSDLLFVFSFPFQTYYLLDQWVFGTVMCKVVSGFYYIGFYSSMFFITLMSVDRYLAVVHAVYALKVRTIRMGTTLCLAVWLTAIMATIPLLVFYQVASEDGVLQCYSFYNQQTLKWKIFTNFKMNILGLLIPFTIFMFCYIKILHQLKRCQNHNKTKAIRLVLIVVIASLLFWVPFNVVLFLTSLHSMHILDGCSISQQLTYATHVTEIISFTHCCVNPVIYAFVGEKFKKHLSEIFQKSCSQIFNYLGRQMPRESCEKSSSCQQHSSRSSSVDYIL

B1: PR005565 (antibody, human IgG1, kappa)
heavy: not shown
light: DIVMTQSPLSLPVTLGQPASISCRSSKSLLHSNAKIYLYWFQQRPGQSPRLLIYRMSNLASGVPDRFSGSGSGTDFTLKISRVEAEDVGVYYCMQHLEYPLTFGQGTKLEIKRTVAAPSVFIFPPSDEQLKSGTASVVCLLNNFYPREAKVQWKVDNALQSGNSQESVTEQDSKDSTYSLSSTLTLSKADYEKHKVYACEVTHQGLSSPVTKSFNRGEC
notes: IgG1 constant region; same VH/VL as PR004666
For the molecule B1, the results for the 50% effective concentration (EC50) in the test with cynomolgus monkey CCR8 [1] and with human CCR8 were 0.76 nM and 0.42 nM, respectively. In the test with cynomolgus monkey CCR8 [2], this molecule registered a Kd of 0.177 nM. Also, the MFI with CD147 was 212; with TSPAN4-FLAG, 207.

Values taken from patent US20240132603A1 (HARBOUR BIOMED US, published 2024).
